Experimental findings from article PMC4457826 (PLoS Pathogens, 2015) are described below.

Test [1] addresses T1, USP7-CTD (Homo sapiens, UniProt Q93009).
T1 construct: USP7-CTD (535–1102); His tag (inferred from nickel-NTA purification; vector p15TV-L); made in house; host or cells: E. coli BL21(DE3)mgk
Briefly: GST pull-down, USP7-CTD. It counts as binding. The note with it: GST pull-down; GST-ICP0 594–775, GST-GMPS and GST-UHRF1 peptides and mutants; Fig 3H, 4C-F. Here is the method: (§1) Fragments representing USP7-CTD Ubl domains were prepared using ligation independent cloning with In-Fusion (Clontech) in p15TV-L. The boundaries of the Ubl domain constructs are Ubl12 (535–776), Ubl123 (535–889), Ubl345 (776–1102), Ubl45 (886–1102) and USP7-CTD (535–1102). Plasmids expressing USP7-NTD, USP7, and myc-USP7 WT (pCANmycUSP7) were described previously. USP7 mutants E759A, D762A, D764A and D762A/D764A in Ubl123 were synthesized (Genscript) and inserted into the pET15b plasmid. USP7 mutants E759A, D762A, D764A, D762A/D764A and D762R/D764R in USP7-CTD were prepared by ACGT Corporation. The D762R/D764R mutant was then sub-cloned into wild-type pCANmycUSP7 for co-IP assays. The mammalian ICP0 expression construct pCI-110 ICP0 was obtained from Roger Everett.
(§2) The ICP0, GMPS and UHRF1 WT and mutant peptides were cloned into pGEX-2TK and expressed in E. coli BL21(DE3). GST-ICP0 594–775 was obtained from Roger Everett. The GST-ICP0 or GST-GMPS or GST-UHRF1 or GST-ICP0 594–775 cell pellets from 500 ml of LB broth were re-suspended with PBS and lysed using sonication. The cleared lysates were applied to 500 μl of equilibrated glutathione-sepharose beads and incubated with rocking for 60 min at 4°C. Unbound proteins were removed by washing with PBS. Bound proteins were eluted with 50 mM Tris pH 8.0 and 100 mM NaCL containing 30 mM reduced glutathione. […]

Test [2] has as its system USP7-CTD mutant D762R/D764R. Nature of the test: GST pull-down, USP7-CTD D762R/D764R. It counts as binding, human. How it is done: as §1, §2

T1 sequence (Q93009 535-1102): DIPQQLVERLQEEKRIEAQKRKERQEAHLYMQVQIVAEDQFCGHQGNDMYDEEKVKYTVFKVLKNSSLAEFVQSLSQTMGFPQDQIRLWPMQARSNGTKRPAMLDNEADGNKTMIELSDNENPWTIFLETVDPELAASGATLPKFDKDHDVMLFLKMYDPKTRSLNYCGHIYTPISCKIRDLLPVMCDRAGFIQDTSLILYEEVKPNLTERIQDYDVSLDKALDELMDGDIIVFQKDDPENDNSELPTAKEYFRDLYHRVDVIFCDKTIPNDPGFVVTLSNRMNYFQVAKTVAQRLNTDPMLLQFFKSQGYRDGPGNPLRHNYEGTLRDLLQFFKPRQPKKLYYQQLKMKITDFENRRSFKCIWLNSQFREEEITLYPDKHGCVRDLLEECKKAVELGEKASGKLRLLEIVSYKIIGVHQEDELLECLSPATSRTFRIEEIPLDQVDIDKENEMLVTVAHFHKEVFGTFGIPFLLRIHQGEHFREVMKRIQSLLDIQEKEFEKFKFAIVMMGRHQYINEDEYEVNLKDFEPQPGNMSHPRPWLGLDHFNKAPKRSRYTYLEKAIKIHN

B1: GST-ICP0 594–775: longer ICP0 peptide corresponding to residues 594–775 (protein)
chain: AVGALGGRQEETSLGPRAASGPRGPRKCARKTRHAETSGAVPAGGLTRYLPISGVSSVVALSPYVNKTITGDCLPILDMETGNIGAYVVLVDQTGNMATRLRAAVPGWSRRTLLPETAGNHVMPPEYPTAPASEWNSLWMTPVGNMLFDQGTLVGALDFRSLRSRHPWSGEQGASTRDEGKQ
modifications: left off: GST, end not stated, kept
With B1, in test [1], the “Binding to WT USP7-CTD” value is recorded as “interaction was observed”. Besides, the “Binding to USP7-CTD mutant D762R/D764R” value in test [2] is reported as “not D762R/D764R USP7-CTD”.
